Tests used:
[1] = tested on: murine tumor cell lines (B16F10, CT26, Neuro-2a) expressing full-length MICA or MICB; assay: Shed and surface MICA/MICB in murine tumor cell lines transduced with full-length MICA or MICB; format: cell-based, mouse; details: B16F10-MICA cells, 24 hours
Description: B16F10, CT26, Neuro-2a, EL4 and RMA-S cell lines were transduced with lentiviral vector pHAGE-CMV-fullEF1a. MICA (allele 009) cDNA or other inserts were placed between NotI and BamHI cloning sites, 3′ to the EF1α promoter and 5′ to the IRES. ZsGreen or luciferase cDNAs were cloned 3′ to the IRES as fluorescence or bioluminescence reporters, respectively. The vector with the ZsGreen reporter was used to compare expression of cDNAs encoding full length MICA, full-length MICB and secreted MICA (Neuro-2a, RMA-S and/or B16F10 cell lines). CT26, EL4 and B16F10 cell lines were transduced with the vector that supported expression of the luciferase reporter. […]
Tumor cells (5×10^4 or 1×10^5 per well, depending on the cell line) were cultured for 24 to 72 hours in 96-well plates (flat-bottom plates for adherent cell lines, U-bottom plates for suspension cell lines). […] MICA or control antibodies were added at different concentrations, and shed MICA/B was then detected in supernatants by ELISA using the Human MICA ELISA kit (Ab59569, Abcam) or Human MICB DuoSet ELISA kit (DY1599, R&D Systems), using the procedures recommended by the manufacturers. […]
MICA and MICB were detected on the cell surface by the PE-conjugated anti-MICA/B antibody (clone 6D4, 320906, Biolegend). […] All samples were acquired in a BD LSR Fortessa flow cytometer, and analyzed by FlowJo V10 software.

RMA-S cell lines = assay: 51Cr release assay with murine NK cells against RMA-S cell lines; format: cell-based, mouse
Experimental: Murine NK cells were isolated from the spleen of C57BL/6 Rag1^−/− mice. These cells were enriched by negative selection using a Mouse NK Cell Isolation Kit (130-096-892, Miltenyi Biotech). Cells were then incubated with PE-conjugated anti-NK1.1 and Pacific Blue-conjugated anti-CD3 (Biolegend), and NK cells were sorted using a BD FACS Aria. Purity after sorting was ˜99%. NK cells used for cytotoxicity assays were isolated from mice that had received an intraperitoneal injection of 200 μg Poly(I:C) (InvivoGen) 1 day prior to NK cell isolation.
Target cells were labeled for 1 hour with 100 μCi of ^51[Cr] per 2×10^6 cells in 0.2 ml of media. Subsequently, cells were washed and plated in V-bottom 96-wells plates (5,000 target cells per well). To determine the experimental release, NK cells were added in an equal volume, but at different ratios. […]
For experiments shown in FIGS. 1E, 10, and 13E antibodies were added at the time of the killing assay. […] At the end of the incubation period, plates were centrifuged (2000 rpm, 5 minutes), part of the supernatant was collected, mixed with scintillation fluid, and radioactivity was quantified using a MicroBeta2 reader (Perkin Elmer). Specific killing was calculated using the following formula: 100×(Experimental release−Spontaneous release)/(Maximum release−Spontaneous release).

B16F10-MICA cells = assay: B16F10 metastasis model in immunocompetent mice; format: in vivo, C57BL/6 mice; details: anti-asGM1, anti-NK1.1 or anti-CD8β
Experimental: The B16F10 cells were transduced with the luciferase-based lentiviral vector to express MICA. B16F10-MICA cells (5×10^5) were injected intravenously into C57BL/6 mice through the tail vein. Fewer tumor cells (4×10^5) were injected into NK cell-deficient mice given that the absence of NK cells results in a very large number of metastases. 7C6 or isotype control antibodies (MPC-11 or C1184, BioXcell, which have mIgG2b and mIgG2a isotypes, respectively) were administered intraperitoneally on days 1, 2, 7 and 10 at a dose of 200 μg per mouse. Antibody blockade and depletion were performed as described previously (24). For antibody-based depletion of CD8 T cells or NK cells, 100 μg per mouse of anti-CD8 (5358, BioXcell), anti-NK1.1 (PK136, BioXcell), and anti-asialo(as)GM1 (Wako Chemicals) were given on days −1, 0, and 7. For antibody blockade, anti-NKG2D (HMG2D, BioXcell) or control IgG (MOPC-21) were given at 200 μg per mouse on days −1, 0, 5, 7 and 10. Blood samples were collected at multiple time points by retro-orbital bleeding under isoflurane anesthesia. Mice were euthanized by CO2 inhalation, lungs were perfused with PBS and fixed in formalin solution, and the number of superficial metastases was counted under a stereomicroscope. Histology was performed by the Rodent Histopathology Core of the Dana-Farber/Harvard Cancer Center using lungs that had not been perfused with PBS.
Macrophages were depleted by intravenous injection of 0.2 ml clodronate liposomes (Encapsula NanoSciences LLC). In the humanized and B16F10-MICA metastasis models, 0.2 ml of clodronate liposomes or control liposomes were injected i.v. (on the same day of tumor cell inoculation and then once weekly).

CT26-MICA = assay: CT26 metastasis model; format: in vivo, Balb/c mice; details: antibody days 1, 2, 7, 14; count day 21
Experimental: (§1) Balb/c wild type mice were injected intravenously with 1×10^6 CT26-MICA, and treated with 7C6-mIgG2b or MPC-11 (isotype) administered intraperitoneally on days 1, 2, 7, and 14. Euthanasia was performed on day 21, followed by lung perfusion with 30% Indian ink through the trachea and fixation in Fekete's fixative. That procedure stains the lungs in black, while the metastases remain white, enabling counting of metastases under a stereomicroscope (24).
as §1, with “stereomicroscope.” for “stereomicroscope (24).”

B1: 7C6-mIgG2b: 7C6 with parental murine IgG2b Fc (antibody)
VH: QIQLVQSGPELKKPGETVKVSCKASGYMFTNYAMNWVKQAPEKGLKWMGWINTHTGDPTYADDFKGRIAFSLETSASTAYLQINNLKNEDTATYFCVRTYGNYAMDYWGQGTSVTVSSAKTTAPSVYPLAPVCGDTTGSSVTLGCLVKGYFPEPVTLTWNSGSLSSGVHTFPAVLQSDLYTLSSSVTVTSS
VL: DIQMTQTTSSLSASLGDRVTISCSASQDISNYLNWYQQKPDGTVKLLIYDTSILHLGVPSRFSGSGSGTDYSLTISNLEPEDIATYYCQQYSKFPRTFGGGTTLEIK
ability to inhibit MICA shedding, 7C6 with distinct Fc regions [1]: does not alter the ability of MICA antibody to inhibit MICA shedding
murine NK cell-mediated cytotoxicity against tumor cells expressing full-length MICA (RMA-S cell lines; full-length MICA): enhances NK cell-mediated cytotoxicity
murine NK cell-mediated cytotoxicity against tumor cells that release MICA by exocytosis (RMA-S cell lines; secreted MICA): not against tumor cells that release MICA by exocytosis
therapeutic activity against lung metastases after NK cell or CD8 T cell depletion (B16F10-MICA cells): NK cell (anti-asGM1 or anti-NK1.1) but not CD8 T cell (anti-CD8β) depletion abrogated the therapeutic activity
activity against CT26-MICA lung metastases (CT26-MICA): has activity against CT26-MICA tumor cells

From patent publication US12662540B2, “Compositions and methods for inhibition of MICA/B shedding” (DANA-FARBER CANCER INSTITUTE, INC., priority 2017, dated 2026)
